{
  "source": "patent US20030072752A1",
  "about": "(GENERAL HOSPITAL CORPORATION A MASSACHUSETTS, published 2003)",
  "molecules": {"B1": {"name": "squamous cell carcinoma-antigen (SCC-A) (other, UniProt P29508 1-390, looked up)", "chain": "MNSLSEANTKFMFDLFQQFRKSKENNIFYSPISITSALGMVLLGAKDNTAQQIKKVLHFDQVTENTTGKAATYHVDRSGNVHHQFQKLLTEFNKSTDAYELKIANKLFGEKTYLFLQEYLDAIKKFYQTSVESVDFANAPEESRKKINSWVESQTNEKIKNLIPEGNIGSNTTLVLVNAIYFKGQWEKKFNKEDTKEEKFWPNKNTYKSIQMMRQYTSFHFASLEDVQAKVLEIPYKGKDLSMIVLLPNEIDGLQKLEEKLTAEKLMEWTSLQNMRETRVDLHLPRFKVEESYDLKDTLRTMGMVDIFNGDADLSGMTGSRGLVLSGVLHKAFVEVTEEGAEAAAATAVVGFGSSPASTNEEFHCNHPFLFFIRQNKTNSILFYGRFSSP"}},
  "key": {"[1]": {"molecular_target": "T1, bovine cathepsin L (bovine, UniProt P25975 118-334, limits assumed)", "T1 construct": "also called chatepsin L", "T1 sequence (P25975 118-334 limits assumed)": "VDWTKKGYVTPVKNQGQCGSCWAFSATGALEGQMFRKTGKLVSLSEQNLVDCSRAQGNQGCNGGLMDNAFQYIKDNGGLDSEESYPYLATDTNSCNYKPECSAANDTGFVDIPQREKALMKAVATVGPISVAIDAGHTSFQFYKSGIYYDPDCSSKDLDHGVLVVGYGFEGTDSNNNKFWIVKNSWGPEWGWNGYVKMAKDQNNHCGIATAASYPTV", "assay": "enzyme inhibition, Dixon plots at different substrate concentrations (Z-Phe-Arg-MCA)"}, "[2]": {"molecular_target": "papain (UniProt P00784)", "sequence (P00784 134-345 limits assumed)": "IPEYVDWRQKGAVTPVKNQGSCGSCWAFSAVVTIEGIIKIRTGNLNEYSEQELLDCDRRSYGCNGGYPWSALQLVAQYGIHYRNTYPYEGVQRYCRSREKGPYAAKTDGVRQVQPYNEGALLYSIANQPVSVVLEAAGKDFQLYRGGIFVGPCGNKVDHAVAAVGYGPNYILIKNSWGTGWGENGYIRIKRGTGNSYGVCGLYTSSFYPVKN", "assay": "enzyme inhibition, Dixon plots at different substrate concentrations (BANA)"}, "[3]": {"molecular_target": "T1, bovine cathepsin L", "assay": "enzyme inhibition (method not restated here)"}, "[4]": {"molecular_target": "T1, bovine cathepsin L", "assay": "enzyme inhibition (method and origin of the value not stated)"}},
  "data": [
    {"molecule": "psoriastatin preparation (purified from psoriatic scale extract)", "values": [
      {"measurement": "Ki", "setting": "[1]", "value": 1.9, "unit": "nM"},
      {"measurement": "Ki", "setting": "[2]", "value": 1.68, "unit": "nM"},
      {"measurement": "Ki", "setting": "[3]", "value": 5.9, "unit": "nM"}
    ]},
    {"molecule": "B1", "values": [
      {"measurement": "Ki", "setting": "[4]", "value": 0.067, "unit": "nM"}
    ]}
  ]
}
